The values that follow come from the supplement of paper PMC9112550, “Optimization of the antimicrobial peptide Bac7 by deep mutational scanning” (BMC Biology, 2022).
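Further: peptides expressed intracellularly from a pBAD plasmid library in pooled LB shake-flask culture, induced with 0.3% L-arabinose, DNA abundance read by NGS, three biological replicates, DESeq2 with apeglm shrinkage.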

The test system of the data set is Escherichia coli TOP10. In words: shrunken log2 fold change of peptide-encoding DNA abundance (4.5 h post-induction vs induction); higher = less antimicrobial activity (less host growth inhibition). As to conditions: time post-induction: 4.5 h; library: site-saturation at positions 5, 18, 19, 20.
Consider RRIRKRPPRLPRPRPRPIVNPRP, for which the “shrunken log2 fold change” value came to 0.219. With RRIRGRPPRLPRPRPRPFWEPRP, the “shrunken log2 fold change” value came to 0.577.

For RRIRYRPPRLPRPRPRPDVEPRP, the “shrunken log2 fold change” value was -0.00174. As to RRIRQRPPRLPRPRPRPQCPPRP, the “shrunken log2 fold change” value was -0.229. To RRIRSRPPRLPRPRPRPQIHPRP belongs -0.341; to RRIRPRPPRLPRPRPRPELCPRP, 0.277; to RRIRTRPPRLPRPRPRPAGKPRP, 0.196. In the case of RRIRPRPPRLPRPRPRPTKEPRP it was 0.193; in that of RRIRTRPPRLPRPRPRPFVFPRP, -0.295. In the case of RRIRARPPRLPRPRPRPHIKPRP it was -0.388; in that of RRIRWRPPRLPRPRPRPRQAPRP, 0.475; in that of RRIRWRPPRLPRPRPRPRMPPRP, 0.395. With RRIRMRPPRLPRPRPRPHMRPRP, the “shrunken log2 fold change” value was 0.509. In the case of RRIRHRPPRLPRPRPRPGYRPRP, the “shrunken log2 fold change” value is -0.00177.

As for RRIRRRPPRLPRPRPRPYKCPRP, the “shrunken log2 fold change” value is -0.639. To RRIRHRPPRLPRPRPRPQGEPRP belongs -0.171. To RRIRFRPPRLPRPRPRPMGVPRP belongs -0.457; to RRIRKRPPRLPRPRPRPEWSPRP, 0.0885. In the case of RRIRERPPRLPRPRPRPTQTPRP it was -0.00311; in that of RRIRLRPPRLPRPRPRPHFRPRP, -0.102. In the case of RRIRDRPPRLPRPRPRPNRYPRP, the “shrunken log2 fold change” value is -0.0973. In the case of RRIRIRPPRLPRPRPRPFFGPRP it was -0.00653; in that of RRIRMRPPRLPRPRPRPSNMPRP, -0.0931; in that of RRIRFRPPRLPRPRPRPWFVPRP, -0.283.

Consider RRIRLRPPRLPRPRPRPWLAPRP, for which the “shrunken log2 fold change” value is -0.218.

Regarding RRIRNRPPRLPRPRPRPRQMPRP, the “shrunken log2 fold change” value was 0.0821.

For RRIRHRPPRLPRPRPRPTSVPRP, the “shrunken log2 fold change” value was -0.0283. For RRIRNRPPRLPRPRPRPSTCPRP, the “shrunken log2 fold change” value was -0.186. To RRIRGRPPRLPRPRPRPSKMPRP belongs 0.0491. In the case of RRIRCRPPRLPRPRPRPERTPRP it was 0.766; in that of RRIRPRPPRLPRPRPRPDVMPRP, 0.16; in that of RRIRVRPPRLPRPRPRPHHIPRP, -0.386. In the case of RRIRHRPPRLPRPRPRPFKIPRP it was -0.192.

Regarding RRIRYRPPRLPRPRPRPTDNPRP, the “shrunken log2 fold change” value was -1.05. To RRIRMRPPRLPRPRPRPTNNPRP belongs -0.0518; to RRIRERPPRLPRPRPRPQKSPRP, -0.202. To RRIRHRPPRLPRPRPRPQPTPRP belongs -0.18; to RRIRTRPPRLPRPRPRPLNTPRP, -0.602. To RRIRDRPPRLPRPRPRPHNDPRP belongs -0.201; to RRIRNRPPRLPRPRPRPQLHPRP, -0.358; to RRIRKRPPRLPRPRPRPLACPRP, -0.0149. In the case of RRIRERPPRLPRPRPRPDPSPRP, the “shrunken log2 fold change” value came to 0.0648. On to RRIRDRPPRLPRPRPRPWKWPRP, for which the “shrunken log2 fold change” value was 0.0155.

RRIRVRPPRLPRPRPRPVSTPRP: the “shrunken log2 fold change” value is -0.145. In the case of RRIRQRPPRLPRPRPRPWAMPRP it was -0.0161. To RRIRMRPPRLPRPRPRPHPSPRP belongs -0.127; to RRIRTRPPRLPRPRPRPSRQPRP, 0.15; to RRIRRRPPRLPRPRPRPAEYPRP, 0.0756. In the case of RRIRVRPPRLPRPRPRPNPLPRP it was -0.167; in that of RRIRYRPPRLPRPRPRPSDDPRP, -0.917; in that of RRIRMRPPRLPRPRPRPSYPPRP, -0.412.

As to RRIRMRPPRLPRPRPRPCHRPRP, the “shrunken log2 fold change” value was 0.00646. To RRIRKRPPRLPRPRPRPKFQPRP belongs 0.343; to RRIRQRPPRLPRPRPRPYWFPRP, 0.00499; to RRIRMRPPRLPRPRPRPEFGPRP, 1.22.

RRIRKRPPRLPRPRPRPIGMPRP: the “shrunken log2 fold change” value amounted to 0.213. To RRIRIRPPRLPRPRPRPKDWPRP belongs 0.299. Consider RRIRNRPPRLPRPRPRPTDDPRP, for which the “shrunken log2 fold change” value amounted to 0.0875. RRIRIRPPRLPRPRPRPPMGPRP: the “shrunken log2 fold change” value was 0.0153.

Turning to RRIRIRPPRLPRPRPRPRMGPRP, the “shrunken log2 fold change” value is -0.192. In the case of RRIRDRPPRLPRPRPRPMIFPRP it was 0.0749; in that of RRIRLRPPRLPRPRPRPSMSPRP, 0.221; in that of RRIRDRPPRLPRPRPRPFVRPRP, -0.234. On to RRIRERPPRLPRPRPRPWHHPRP, for which the “shrunken log2 fold change” value is -0.326.

As to RRIRCRPPRLPRPRPRPNPIPRP, the “shrunken log2 fold change” value is -0.423. In the case of RRIRTRPPRLPRPRPRPSNWPRP it was -0.281. In the case of RRIRSRPPRLPRPRPRPGGIPRP it was 0.274. To RRIRKRPPRLPRPRPRPWVEPRP belongs 0.104. Turning to RRIRTRPPRLPRPRPRPCRGPRP, the “shrunken log2 fold change” value was -0.398.

Take RRIRKRPPRLPRPRPRPELSPRP: the “shrunken log2 fold change” value amounted to 0.0277.

Take RRIRTRPPRLPRPRPRPRAIPRP: the “shrunken log2 fold change” value was determined as 0.196. To RRIRCRPPRLPRPRPRPMTVPRP belongs -0.0302; to RRIRHRPPRLPRPRPRPHSWPRP, -0.0723; to RRIRQRPPRLPRPRPRPSDAPRP, 0.147. In the case of RRIRMRPPRLPRPRPRPWVGPRP it was 0.171; in that of RRIRDRPPRLPRPRPRPFLVPRP, -0.199; in that of RRIRIRPPRLPRPRPRPIQHPRP, -0.468. For RRIRWRPPRLPRPRPRPFHTPRP, the “shrunken log2 fold change” value was -0.171.

In the case of RRIRMRPPRLPRPRPRPEDQPRP, the “shrunken log2 fold change” value worked out at 0.0267. To RRIRYRPPRLPRPRPRPYIDPRP belongs -0.103; to RRIRARPPRLPRPRPRPWTKPRP, 0.167; to RRIRIRPPRLPRPRPRPLIKPRP, -0.756. In the case of RRIRSRPPRLPRPRPRPRQDPRP it was 0.127; in that of RRIRLRPPRLPRPRPRPWAIPRP, -0.0706. As for RRIRFRPPRLPRPRPRPCKDPRP, the “shrunken log2 fold change” value is -0.198. In the case of RRIRNRPPRLPRPRPRPQMVPRP it was -0.00674.

For the sequence RRIRMRPPRLPRPRPRPCMGPRP, the “shrunken log2 fold change” value is -0.28. RRIRKRPPRLPRPRPRPNLVPRP: the “shrunken log2 fold change” value is -0.0428. In the case of RRIRGRPPRLPRPRPRPKNEPRP it was 0.713; in that of RRIRSRPPRLPRPRPRPWAYPRP, -0.107; in that of RRIRHRPPRLPRPRPRPVCGPRP, 0.137.
